Data taken from the supplement of paper PMC9233669.
Variants at the floor of the assay were thinned out.

Tests used:
[1] = test system: biotinyl-Phe-oxazolone; test: self-aminoacylation, catalytic enhancement (BFO) (fold over background); higher = more active; k-Seq, kA / k0A0; sequences stand for … in GGGAAUGGAUCCACAUCUACGAAUUC…UUCACUGCAGACUUGACGAAGCUG
Outline: (§1)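 The uncatalyzed rate is the low-activity peak of a bimodal Gaussian fit, and catalytic enhancement is median kA divided by it. The kA values came from pseudo-first-order fits, with 1000 bootstraps, of per-sequence fraction reacted measured by streptavidin capture, triplicate qPCR and Illumina sequencing. Mutagenized RNA pools with a 21-nt variable region (0.43 μM) were reacted with each biotinyl-aminoacyl-oxazolone at 2–1250 μM in 50 μL HEPES/NaCl/KCl/MgCl2/CaCl2 buffer with 5% acetonitrile, pH 6.9–7.0, for 90 minutes at room temperature.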

[2] = test system: biotinyl-Trp-oxazolone; test: self-aminoacylation, catalytic enhancement (BWO) (fold over background); higher = more active; k-Seq, kA / k0A0; sequences stand for … in GGGAAUGGAUCCACAUCUACGAAUUC…UUCACUGCAGACUUGACGAAGCUG
Outline: as §1

[3] = test system: biotinyl-Val-oxazolone; test: self-aminoacylation, catalytic enhancement (BVO) (fold over background); higher = more active; k-Seq, kA / k0A0; sequences stand for … in GGGAAUGGAUCCACAUCUACGAAUUC…UUCACUGCAGACUUGACGAAGCUG
Outline: as §1

[4] = test system: biotinyl-Leu-oxazolone; test: self-aminoacylation, catalytic enhancement (BLO) (fold over background); higher = more active; k-Seq, kA / k0A0; sequences stand for … in GGGAAUGGAUCCACAUCUACGAAUUC…UUCACUGCAGACUUGACGAAGCUG
Outline: as §1

[5] = test system: biotinyl-Met-oxazolone; test: self-aminoacylation, catalytic enhancement (BMO) (fold over background); higher = more active; k-Seq, kA / k0A0; sequences stand for … in GGGAAUGGAUCCACAUCUACGAAUUC…UUCACUGCAGACUUGACGAAGCUG
Outline: as §1

[6] = test system: biotinyl-Ile-oxazolone; test: self-aminoacylation, catalytic enhancement (BIO) (fold over background); higher = more active; k-Seq, kA / k0A0; sequences stand for … in GGGAAUGGAUCCACAUCUACGAAUUC…UUCACUGCAGACUUGACGAAGCUG
Outline: as §1

| Sequence | self-aminoacylation [1] | self-aminoacylation [2] | self-aminoacylation [3] | self-aminoacylation [4] | self-aminoacylation [5] | self-aminoacylation [6] |
| --- | --- | --- | --- | --- | --- | --- |
| AUGUUUGCUAAUAGCCGCAAG [Fam3.1 aminoacylation ribozyme variant] | 2.62 | 1.36 | 1.04 | 1.14 | 0.997 | 1.28 |
| AUGUUUGCUAAUAGUCACAAG [Fam3.1 aminoacylation ribozyme variant] | 5.37 | 2.35 | 1.01 | 1.07 | 1.17 | 1.24 |
| AUGUUUGCUAAUAGUCGAAAG [Fam3.1 aminoacylation ribozyme variant] | 8.7 | 2.94 | 1.11 | 1.07 | 1.08 | 1.28 |
| AUGUUUGCUAAUAGUCGCACG [Fam3.1 aminoacylation ribozyme variant] | 1.24 | 0.741 | 0.981 | 1.13 | 1.02 | 1.15 |
| AUGUUUGCUAAUAGUCGCAGG [Fam3.1 aminoacylation ribozyme variant] | 2.47 | 1.95 | 1.33 | 1.8 | 1.76 | 1.54 |
| AUGUUUGCUAAUAGUCGCAUG [Fam3.1 aminoacylation ribozyme variant] | 1.52 | 1.38 | 1.39 | 1.72 | 1.58 | 1.34 |
| AUGUUUGCUAAUAGUCGCCAG [Fam3.1 aminoacylation ribozyme variant] | 1.53 | 1.76 | 1.29 | 1.51 | 1.37 | 1.26 |
| AUGUUUGCUAAUGGUCGCAAG [Fam3.1 aminoacylation ribozyme variant] | 1.63 | 1.13 | 0.934 | 1.02 | 0.875 | 1.16 |
| AUGUUUGCUGAUAGUCGCAAG [Fam3.1 aminoacylation ribozyme variant] | 3.84 | 1.38 | 1.37 | 1.33 | 1.1 | 1.81 |
| AUGUUUUCUAAUAGUCGCAAG [Fam3.1 aminoacylation ribozyme variant] | 2.58 | 2.2 | 1.2 | 1.52 | 1.62 | 1.62 |
| AUUAACAUAGGUCAUCGGGUG [Fam2.2 aminoacylation ribozyme variant] | 38 | 6.55 | 3.51 | 7 | 6.29 | 3.92 |
| AUUAACAUGGUCAUCGAGUGA [Fam2.1 aminoacylation ribozyme variant] | 26.1 | 8.43 | 3.23 | 6.1 | 5.53 | 3.41 |
| AUUAACCAAGGUCAUCGGGUG [Fam2.2 aminoacylation ribozyme variant] | 43.2 | 6.8 | 4.19 | 9.4 | 7.25 | 3.81 |
| AUUAACCUAGGUAAUCGGGUG [Fam2.2 aminoacylation ribozyme variant] | 12.5 | 2.42 | 1.66 | 2.3 | 2.62 | 1.78 |
| AUUAACCUAGGUCACCGGGUG [Fam2.2 aminoacylation ribozyme variant] | 23.6 | 5.15 | 3.13 | 4.52 | 4.09 | 3.19 |
| AUUAACCUAGGUCAGCGGGUG [Fam2.2 aminoacylation ribozyme variant] | 19 | 2.72 | 2.12 | 4.4 | 2.59 | 2.5 |
| AUUAACCUAGGUCAUAGGGUG [Fam2.2 aminoacylation ribozyme variant] | 1.19 | 2.08 | 1.36 | 1.74 | 1.41 | 1.29 |
| AUUAACCUAGGUCAUCAGGUG [Fam2.2 aminoacylation ribozyme variant] | 1.4 | 1.43 | 1.48 | 1.47 | 1.35 | 1.24 |
| AUUAACCUAGGUCAUCGGGUU [Fam2.2 aminoacylation ribozyme variant] | 40.5 | 6.05 | 4.78 | 12.7 | 9.3 | 5.18 |
| AUUAACCUAGGUCAUCGGUUG [Fam2.2 aminoacylation ribozyme variant] | 3.47 | 1.05 | 1.09 | 1.19 | 1.07 | 1.02 |
| AUUAACCUAGGUCAUGGGGUG [Fam2.2 aminoacylation ribozyme variant] | 22.6 | 3.44 | 2.38 | 4.82 | 3.3 | 2.28 |
| AUUAACCUAGGUCAUUGGGUG [Fam2.2 aminoacylation ribozyme variant] | 15.2 | 2.85 | 2.28 | 3.23 | 2.88 | 1.93 |
| AUUAACCUAUGUCAUCGGGUG [Fam2.2 aminoacylation ribozyme variant] | 36 | 5.05 | 3.13 | 6.82 | 5.3 | 3.43 |
| AUUAACCUCGGUCAUCGGGUG [Fam2.2 aminoacylation ribozyme variant] | 28.5 | 3.74 | 3.76 | 5.54 | 5.08 | 3.13 |
| AUUAACCUGGUCAACGAGUGA [Fam2.1 aminoacylation ribozyme variant] | 22.5 | 6.7 | 2.85 | 5.45 | 5.37 | 2.78 |
| AUUAACCUGGUCAUCCAGUGA [Fam2.1 aminoacylation ribozyme variant] | 18.6 | 5.64 | 2.56 | 4.45 | 4.16 | 2.38 |

| Sequence | self-aminoacylation [1] | self-aminoacylation [2] | self-aminoacylation [3] | self-aminoacylation [4] | self-aminoacylation [5] | self-aminoacylation [6] |
| --- | --- | --- | --- | --- | --- | --- |
| AUUAACCUGGUCAUCGAGUGA [Fam2.1 aminoacylation ribozyme variant] | 8.46 | 8.57 | 4.02 | 7.64 | 7.3 | 3.97 |
| AUUAACCUGGUCAUCGAGUGC [Fam2.1 aminoacylation ribozyme variant] | 0.898 | 0.854 | 1.1 | 1.18 | 1.25 | 0.994 |
| AUUAACCUGGUCAUCUAGUGA [Fam2.1 aminoacylation ribozyme variant] | 52.4 | 11.1 | 4.53 | 9.7 | 9.41 | 4.57 |
| AUUAACCUGGUCAUGGAGUGA [Fam2.1 aminoacylation ribozyme variant] | 9.66 | 4.5 | 2.02 | 3.54 | 4.08 | 2.45 |
| AUUAACCUUGUCAUCGAGUGA [Fam2.1 aminoacylation ribozyme variant] | 17.6 | 7.59 | 3.39 | 6.72 | 6.16 | 3.25 |
| AUUAACUUAGGUCAUCGGGUG [Fam2.2 aminoacylation ribozyme variant] | 28.7 | 4.85 | 2.59 | 4.73 | 4.59 | 2.79 |
| AUUAAGCUAGGUCAUCGGGUG [Fam2.2 aminoacylation ribozyme variant] | 34.3 | 4.85 | 3.77 | 5.1 | 3.88 | 3.11 |
| AUUACACUGGUCAUCGAGUGA [Fam2.1 aminoacylation ribozyme variant] | 19.7 | 6.94 | 3.09 | 5.86 | 5.44 | 3.17 |
| AUUACACUGGUCAUCGCGUGA [Fam2.1 aminoacylation ribozyme variant] | 102 | 14.6 | 7.07 | 14.4 | 12.6 | 6.84 |
| AUUACACUGGUCAUCGUGUGA [Fam2.1 aminoacylation ribozyme variant] | 13.8 | 3 | 1.56 | 2.8 | 3.15 | 1.75 |
| AUUACACUGGUCCUCGAGUGA [Fam2.1 aminoacylation ribozyme variant] | 23.4 | 5.79 | 2.32 | 4.8 | 5.17 | 2.72 |
| AUUACACUUGUCAUCGAGUGA [Fam2.1 aminoacylation ribozyme variant] | 11.4 | 5.31 | 2.59 | 4.35 | 4.21 | 2.51 |
| AUUACCAAGGUCAUCGAGUGA [Fam2.1 aminoacylation ribozyme variant] | 43.2 | 9.76 | 3.96 | 8.44 | 7.64 | 3.64 |
| AUUACCACGGUCAUCGAGUGA [Fam2.1 aminoacylation ribozyme variant] | 38.3 | 8.11 | 3.66 | 5.96 | 6.51 | 3.48 |
| AUUACCAUCGUCAUCGAGUGA [Fam2.1 aminoacylation ribozyme variant] | 5.68 | 3.53 | 2.32 | 3.6 | 3.19 | 2.21 |
| AUUACCAUGGUCAUCGAGUGA [Fam2.1 aminoacylation ribozyme variant] | 12 | 10.7 | 4.75 | 9.28 | 8.61 | 4.49 |
| AUUACCAUGGUCUUCGAGUGA [Fam2.1 aminoacylation ribozyme variant] | 28 | 7.3 | 3.35 | 6.61 | 5.47 | 3.56 |
| AUUACCAUGGUGAUCGAGUGA [Fam2.1 aminoacylation ribozyme variant] | 14.7 | 4.4 | 2.4 | 4.04 | 3.59 | 2.33 |
| AUUACCCAAGUCAUCGAGUGA [Fam2.1 aminoacylation ribozyme variant] | 42.4 | 9.59 | 4.46 | 9.5 | 8.57 | 4.5 |
| AUUACCCAGAUCAUCGAGUGA [Fam2.1 aminoacylation ribozyme variant] | 15.2 | 7.37 | 2.99 | 5 | 5.55 | 3.1 |
| AUUACCCAGGUAAUCGAGUGA [Fam2.1 aminoacylation ribozyme variant] | 44.6 | 9.28 | 3.56 | 8.05 | 7.57 | 3.26 |
| AUUACCCAGGUCAUCGAUUGA [Fam2.1 aminoacylation ribozyme variant] | 0.642 | 0.511 | 0.759 | 0.826 | 0.825 | 0.872 |
| AUUACCCAGGUCAUCUAGUGA [Fam2.1 aminoacylation ribozyme variant] | 59.3 | 12.2 | 5.97 | 9.76 | 10.7 | 4.62 |
| AUUACCCAGGUCUUCGAGUGA [Fam2.1 aminoacylation ribozyme variant] | 39.3 | 8.2 | 3.61 | 6.86 | 5.69 | 3.65 |
| AUUACCCAGGUGAUCGAGUGA [Fam2.1 aminoacylation ribozyme variant] | 29.3 | 6.02 | 2.33 | 4.3 | 4.68 | 2.39 |
